The source of these data is patent US20240141072A1.

For this experiment, the target named is human DLL3 on DLL3-expressing tumor cell lines (human) (UniProt Q9NYJ7). The experiment is described as follows: cell-based or functional assay.
Sequence of human DLL3 on DLL3-expressing tumor cell lines (human) (Q9NYJ7 27-618 limits assumed): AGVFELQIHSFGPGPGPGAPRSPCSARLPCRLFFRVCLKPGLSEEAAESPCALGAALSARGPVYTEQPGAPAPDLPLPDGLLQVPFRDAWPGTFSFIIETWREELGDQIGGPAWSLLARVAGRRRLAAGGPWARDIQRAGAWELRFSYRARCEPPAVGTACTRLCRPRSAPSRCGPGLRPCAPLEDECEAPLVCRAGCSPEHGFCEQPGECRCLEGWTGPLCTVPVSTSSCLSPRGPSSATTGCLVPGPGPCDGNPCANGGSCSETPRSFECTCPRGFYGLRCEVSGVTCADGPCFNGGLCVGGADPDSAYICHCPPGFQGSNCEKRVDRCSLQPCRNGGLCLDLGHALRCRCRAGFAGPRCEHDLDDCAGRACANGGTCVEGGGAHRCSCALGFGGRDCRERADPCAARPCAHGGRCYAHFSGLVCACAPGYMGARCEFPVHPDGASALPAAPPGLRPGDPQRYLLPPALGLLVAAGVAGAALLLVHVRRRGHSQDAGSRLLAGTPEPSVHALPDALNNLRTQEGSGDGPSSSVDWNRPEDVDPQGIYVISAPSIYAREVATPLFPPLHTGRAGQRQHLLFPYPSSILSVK

B1: 4D09-M34L anti-DLL3 trispecific protein (protein, not shown: large carriers)
chain: EVQLVESGGGLVQPGGSLTLSCAASGSSVKFLSLAWYRQAPGKKRELVAGISADGSTDYILSVKGRFTISRDNAKNSVYLQMNSLRAEDTAVYYCYAYEWTTRYTYWGQGTLVTVSS
Turning to B1, the DMS-153 TDCC EC50 was found to be 0.054 nM and the fold TDCC potency over the parental molecule DH6 came out at 4.4 fold.

B2: 4H11-M34L anti-DLL3 trispecific protein (protein, not shown: large carriers)
chain: EVQLVESGGGLVQPGGSLTLSCAASGSSVSRLSLAWYRQAPGKKRELVAGISVDGSTDYIDSVKGRFTISRDNAKNSVYLQMNSLRAEDTAVYYCYAYRWTTRLTYWGQGTLVTVSS
The molecule B2 had a DMS-153 TDCC EC50 of 0.13 nM.

B3: 2F11 anti-DLL3 trispecific protein (protein, not shown: large carriers)
chain: EVQLVESGGGLVQPGGSLTLSCVASGSVSSINAMGWYRRAPGKQRELVAGISSDGSKVYKDSVKGRFTISRDNAKNSVYLQMNSLRAEDTAVYYCYYFRTVSGSSMGYWGQGTLVTVSS
B3 returned a DMS-153 TDCC EC50 of 0.049 nM.

B4: 2E05-M106Q anti-DLL3 trispecific protein (protein, not shown: large carriers)
chain: EVQLVESGGGLVQPGGSLTLSCVASGSPSSINAYGWYRRAPGKQRELVAGISSDGSKVYSDSVKGRFTISRDNAKNSVYLQMNSLRAEDTAVYYCYYFRTVSGSSQSYWGQGTLVTVSS
With B4, the DMS-153 TDCC EC50 was determined as 0.041 nM and the fold TDCC potency over the parental molecule DH43 amounted to 6.6 fold.

B5: 2E05-M106Y anti-DLL3 trispecific protein (protein, not shown: large carriers)
chain: EVQLVESGGGLVQPGGSLTLSCVASGSPSSINAYGWYRRAPGKQRELVAGISSDGSKVYSDSVKGRFTISRDNAKNSVYLQMNSLRAEDTAVYYCYYFRTVSGSSYSYWGQGTLVTVSS
In the case of B5, the DMS-153 TDCC EC50 is 0.063 nM.
